Test results reported in PMC3404986, “Pyridoxal 5′-Phosphate Is a Slow Tight Binding Inhibitor of E. coli Pyridoxal Kinase” (PLoS ONE, 2012).

Columns and labels:
Cc1ncc(CO)c(C=O)c1O = tested on: T1, Cc1ncc(CO)c(C=O)c1O; test: purified protein; type: biochemical, Escherichia coli; conditions: MgATP co-substrate, 20 mM K-HEPES pH 7.5, 0.2 mM MgCl2, 37°C
T1 construct: full length, recombinant from E. coli; wild type untagged (as previously described); K229Q His-tagged (C-terminus; pET28a NdeI/EcoRI)

[1] = tested on: T2, Nc1ncnc2c1ncn2[C@@H]1O[C@H](COP(=O)(O)OP(=O)(O)OP(=O)(O)O)[C@@H](O)[C@H]1O; test: purified protein; type: biochemical, Escherichia coli; conditions: PL co-substrate, 20 mM K-HEPES pH 7.5, 0.2 mM MgCl2, 37°C
T2 construct: full length, recombinant from E. coli; wild type untagged (as previously described); K229Q His-tagged (C-terminus; pET28a NdeI/EcoRI)

Substance	Km (Cc1ncc(CO)c(C=O)c1O) [µM]	kcat (Cc1ncc(CO)c(C=O)c1O) [min⁻¹]	Km [1] [µM]	kcat [1] [min⁻¹]	Km (Cc1ncc(CO)c(C=O)c1O; His-tagged) [µM]	kcat (Cc1ncc(CO)c(C=O)c1O; His-tagged) [min⁻¹]	Km ([1]; His-tagged) [µM]	kcat ([1]; His-tagged) [min⁻¹]
ePL kinase (E. coli pyridoxal kinase 1, PL kinase1) (Escherichia coli K-12)	60	240	460	240				
ePL kinase (E. coli pyridoxal kinase 1, PL kinase1) (Escherichia coli K-12; K229Q)					384	26	122	26
